Like-named read-outs stand apart in the source and are kept apart here. One block for each binder: values may come before it.
Assays:
[1] = biological target: T1, Trop2 on human cancer cell lines (T-47D, HPAF II, HeLa NLR, OVMANA) (human, UniProt P09758 27-323); assay: flow cytometry on T-47D cells, FITC anti-human IgG Fcγ secondary antibody, median fluorescence
T1 construct: whole, on cells; also called Tumor-associated calcium signal transducer 2
T1 sequence (looked up): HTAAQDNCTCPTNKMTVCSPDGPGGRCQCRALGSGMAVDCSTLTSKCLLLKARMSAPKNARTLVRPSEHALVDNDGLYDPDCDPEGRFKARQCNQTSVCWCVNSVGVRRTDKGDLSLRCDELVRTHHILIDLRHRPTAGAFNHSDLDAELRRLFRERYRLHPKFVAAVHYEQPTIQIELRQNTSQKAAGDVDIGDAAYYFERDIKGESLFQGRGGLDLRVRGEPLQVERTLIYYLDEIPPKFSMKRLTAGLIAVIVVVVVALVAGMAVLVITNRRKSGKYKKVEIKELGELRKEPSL
Description: (§1) Target cells were harvested and transferred into a 96 well round bottom plate (100,000 cells per well). […] After the staining, the cells were washed twice with FACS buffer to remove unbound molecules. […] After 30 minutes incubation at 4° C. the cells were washed twice with FACS buffer to remove unbound antibodies. Finally, the cells were resuspended in 100 μl FACS buffer and analyzed by flow cytometry using BD Canto II.

[2] = biological target: T1, Trop2 on human cancer cell lines …; assay: flow cytometry on HeLa ST14 cells, FITC anti-human IgG Fcγ secondary antibody, median fluorescence
Description: as §1

[3] = biological target: T2, human CD3 on Jurkat NFAT reporter T cells (human, UniProt P07766 23-207); assay: flow cytometry on Jurkat NFAT reporter T cells (human CD3), 1:4 titration from 50 nM, FITC anti-human IgG Fcγ secondary antibody, median fluorescence; sample pre-incubated overnight with Matriptase (+M)
T2 construct: whole, on cells; also called CD3 on Jurkat T cells
Description: (§2) Jurkat-NFAT reporter cells (GloResponse Jurkat NFAT-RE-luc2P; Promega #CS176501) are a human acute lymphatic leukemia reporter cell line with a NFAT promoter, expressing human CD3. The cells were cultured in RPMI1640, 2 g/l glucose, 2 g/l NaHCO₃, 10% FBS, 25 mM HEPES, 2 mM L-glutamin, 1×NEAA, 1× sodium-pyruvate at 0.1-0.5 mio cells per ml.
(§3) The next day, Jurkat cells were harvested and transferred into a 96 well round bottom plate (100,000 cells per well). […] After the staining, the cells were washed twice with FACS buffer to remove unbound molecules. […] After 30 minutes incubation at 4° C. the cells were washed twice with FACS buffer to remove unbound antibodies. Finally, the cells were resuspended in 100 μl FACS buffer and analyzed by flow cytometry using BD Canto II.

[4] = biological target: T1, Trop2 on human cancer cell lines …; assay: flow cytometry on OVMANA cells, FITC anti-human IgG Fcγ secondary antibody, median fluorescence
Description: as §1

[5] = biological target: T1, Trop2 on human cancer cell lines …; assay: flow cytometry on HPAF II cells, FITC anti-human IgG Fcγ secondary antibody, median fluorescence
Description: as §1

[6] = biological target: T2, human CD3 on Jurkat NFAT reporter T …; assay: flow cytometry on Jurkat NFAT reporter T cells (human CD3), 1:4 titration from 50 nM, FITC anti-human IgG Fcγ secondary antibody, median fluorescence; sample not treated with Matriptase
Description: as §2, §3

[7] = biological target: T2, human CD3 on Jurkat NFAT reporter T …; assay: as above; remark: listed apart in the source
Description: (§4) Jurkat-NFAT reporter cells (GloResponse Jurkat NFAT-RE-luc2P; Promega #CS176501) are a human acute lymphatic leukemia reporter cell line with a NFAT promoter, expressing human CD3. The cells were cultured in RPMI1640, 2 g/l glucose, 2 g/l NaHCO₃, 10% FBS, 25 mM HEPES, 2 mM L-glutamin, 1×NEAA, 1×sodium-pyruvate at 0.1-0.5 mio cells per ml.
(§5) The next day, Jurkat cells were harvested and transferred into a 96 well round bottom plate (100′000 cells per well). […] After the staining, the cells were washed twice with FACS buffer to remove unbound molecules. […] After 30 min incubation at 4° C. the cells were washed twice with FACS buffer to remove unbound antibodies. Finally, the cells were resuspended in a 100 μl FACS buffer and analyzed by flow cytometry using BD Canto II.

[8] = biological target: T2, human CD3 on Jurkat NFAT reporter T …; assay: flow cytometry on Jurkat NFAT reporter T cells (human CD3), 1:4 titration from 50 nM, FITC anti-human IgG Fcγ secondary antibody, median fluorescence; sample pre-incubated overnight with Matriptase (+M); remark: listed apart in the source
Description: as §4, §5

T2 sequence (P07766 23-207): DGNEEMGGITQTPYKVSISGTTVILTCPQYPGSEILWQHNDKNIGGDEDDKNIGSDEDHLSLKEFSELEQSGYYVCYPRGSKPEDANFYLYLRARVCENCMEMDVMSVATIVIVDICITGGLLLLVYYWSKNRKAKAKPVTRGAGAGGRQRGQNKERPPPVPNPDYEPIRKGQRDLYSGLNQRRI

EC50 (read off the curve) [1]: ~0.9 nM
EC50 (read off the curve) [2]: ~1 nM
EC50 (read off the curve) [3]: ~1 nM
EC50 (read off the curve) [4]: ~1 nM
EC50 (read off the curve) [5]: ~1 nM
EC50 (read off the curve) [6]: ~1 nM
B1: classical Trop2 TCB P1AI0692 (unmasked) (bispecific antibody, human IgG1, lambda, L234A L235A)
heavy 1: DIQMTQSPSSLSASVGDRVTITCKASQDVSIAVAWYQQKPGKAPKVLIYSASYRYTGVPDRFSGSGSGTDFTFTISSLQPEDIAVYYCQQHYITPLTFGGGTKVEIKSSASTKGPSVFPLAPSSKSTSGGTAALGCLVKDYFPEPVTVSWNSGALTSGVHTFPAVLQSSGLYSLSSVVTVPSSSLGTQTYICNVNHKPSNTKVDKKVEPKSCDKTHTCPPCPAPEAAGGPSVFLFPPKPKDTLMISRTPEVTCVVVDVSHEDPEVKFNWYVDGVEVHNAKTKPREEQYNSTYRVVSVLTVLHQDWLNGKEYKCKVSNKALGAPIEKTISKAKGQPREPQVCTLPPSRDELTKNQVSLSCAVKGFYPSDIAVEWESNGQPENNYKTTPPVLDSDGSFFLVSKLTVDKSRWQQGNVFSCSVMHEALHNHYTQKSLSLSPG
heavy 2: not shown
light 1: QAVVTQEPSLTVSPGGTVTLTCGSSTGAVTTSNYANWVQEKPGQAFRGLIGGTNKRAPGTPARFSGSLLGGKAALTLSGAQPEDEAEYYCALWYSNLWVFGGGTKLTVLGQPKAAPSVTLFPPSSKKLQANKATLVCLISDFYPGAVTVAWKADSSPVKAGVETTTPSKQSNNKYAASSYLSLTPEQWKSHRSYSCQVTHEGSTVEKTVAPTECS
light 2: QIQLVQSGHEVKKPGASVKVSCKASGYTFTNYGMNWVRQAPGQGLEWMGWINTKTGEPTYAEEFKGRFVFSLETSASTAYLQISSLKAEDMAMYFCGRGGYGSSYWYFDVWGQGTTVTVSSASVAAPSVFIFPPSDEQLKSGTASVVCLLNNFYPREAKVQWKVDNALQSGNSQESVTEQDSKDSTYSLSSTLTLSKADYEKHKVYACEVTHQGLSSPVTKSFNRGEC
notes: Tested with and without Matriptase pre-treatment; no mask; also called unmasked Trop2 TCB; unmasked classical TCB

EC50 (read off the curve) [1]: ~2 nM
EC50 (read off the curve) [2]: ~2 nM
EC50 (read off the curve) [4]: ~3 nM
EC50 (read off the curve) [5]: ~2 nM
binding result [6]: no binding (tested: 50 nM)
B2: non-cleavable Trop2 proTCB P1AI0691 (Trop2 pro-TCB 2+1; non-cleavable) (bispecific antibody, human IgG1, lambda, L234A L235A)
heavy 1: B1 heavy 1
heavy 2: not shown
light 1: B1 light 1
light 2: B1 light 2
notes: H1L2 mask joined by a GS linker without a protease site; also called non-cleavable proTCB

binding result [7]: no binding (tested: 50 nM)
B3: non-cleavable IGF-1R proTCB P1AH0969 (IGF-1R pro-TCB 2+1; non-cleavable) (bispecific antibody, human IgG1, lambda, L234A L235A)
heavy 1: EIVLTQSPATLSLSPGERATLSCRASQSVSSYLAWYQQKPGQAPRLLIYDASKRATGIPARFSGSGSGTDFTLTISSLEPEDFAVYYCQQRSKWPPWTFGQGTKVESKSSASTKGPSVFPLAPSSKSTSGGTAALGCLVKDYFPEPVTVSWNSGALTSGVHTFPAVLQSSGLYSLSSVVTVPSSSLGTQTYICNVNHKPSNTKVDKKVEPKSCDKTHTCPPCPAPEAAGGPSVFLFPPKPKDTLMISRTPEVTCVVVDVSHEDPEVKFNWYVDGVEVHNAKTKPREEQYNSTYRVVSVLTVLHQDWLNGKEYKCKVSNKALGAPIEKTISKAKGQPREPQVCTLPPSRDELTKNQVSLSCAVKGFYPSDIAVEWESNGQPENNYKTTPPVLDSDGSFFLVSKLTVDKSRWQQGNVFSCSVMHEALHNHYTQKSLSLSPG
heavy 2: not shown
light 1: B1 light 1
light 2: QVELVESGGGVVQPGRSQRLSCAASGFTFSSYGMHWVRQAPGKGLEWVAIIWFDGSSTYYADSVRGRFTISRDNSKNTLYLQMNSLRAEDTAVYFCARELGRRYFDLWGRGTLVSVSSASVAAPSVFIFPPSDEQLKSGTASVVCLLNNFYPREAKVQWKVDNALQSGNSQESVTEQDSKDSTYSLSSTLTLSKADYEKHKVYACEVTHQGLSSPVTKSFNRGEC
notes: H1L2 mask joined by a GS linker without a protease site; also called non-cleavable IGF-1R TCB construct; non-cleavable proTCB

EC50 (read off the curve) [8]: ~0.9 nM
B4: Matriptase pre-cleaved IGF-1R proTCB (P1AH0943 after overnight incubation with human recombinant Matriptase) (bispecific antibody)
heavy 1: B3 heavy 1
heavy 2: not shown
light 1: B1 light 1
light 2: B3 light 2
notes: also called Matriptase pre-cleaved (+M) IGF-1R proTCB

EC50 (read off the curve) [3]: ~0.9 nM
B5: Matriptase pre-cleaved Trop2 proTCB (P1AI0690 after overnight incubation with Matriptase) (bispecific antibody)
heavy 1: B1 heavy 1
heavy 2: not shown
light 1: B1 light 1
light 2: B1 light 2
notes: also called Matriptase pre-cleaved (+M) Trop2 proTCB

EC50 (read off the curve) [7]: ~0.7 nM
EC50 (read off the curve) [8]: ~0.8 nM
B6: classical IGF-1R TCB P1AH0975 (unmasked) (bispecific antibody, human IgG1, lambda, L234A L235A)
heavy 1: B3 heavy 1
heavy 2: not shown
light 1: B1 light 1
light 2: B3 light 2
notes: Tested with and without Matriptase pre-treatment; no mask; also called unmasked classical IGF-1R TCB

EC50 (read off the curve) [1]: ~2 nM
EC50 (read off the curve) [2]: ~1 nM
EC50 (read off the curve) [4]: ~1 nM
EC50 (read off the curve) [5]: ~1 nM
binding result [6]: no binding (tested: 50 nM)
B7: Trop2 proTCB P1AI0690 (Trop2 pro-TCB 2+1; matriptase; P035.093 PQARK H1L2 mask), not Matriptase pre-cleaved (bispecific antibody, human IgG1, lambda, L234A L235A)
heavy 1: B1 heavy 1
heavy 2: not shown
light 1: B1 light 1
light 2: B1 light 2
notes: Knob-into-hole 2+1 format; also called masked Trop2 proTCB; not pre-cleaved Trop2 proTCB

binding result [7]: no binding (tested: 50 nM)
B8: IGF-1R proTCB P1AH0943 (IGF-1R pro-TCB 2+1; matriptase; P035.093 PQARK H1L2 mask), not Matriptase pre-cleaved (bispecific antibody, human IgG1, lambda, L234A L235A)
heavy 1: B3 heavy 1
heavy 2: not shown
light 1: B1 light 1
light 2: B3 light 2
notes: Knob-into-hole 2+1 format with the anti-idiotypic H1L2 scFv mask fused through a PQARK linker to the VH of the CD3 Fab; also called not-Matriptase pre-cleaved IGF-1R proTCB; not pre-cleaved IGF-1R proTCB
